Experiments:
SelK U92S (Homo sapiens) = SelK U92S (Homo sapiens) (UniProt Q9Y6D0); test: SDS-PAGE at high protein concentration
SelK U92C (Homo sapiens) [1] = biological target: SelK U92C (Homo sapiens) (UniProt Q9Y6D0); test: electrospray ionization mass spectrometry
SelK U92C (Homo sapiens) [2] = biological target: SelK U92C (Homo sapiens) (UniProt Q9Y6D0); test: redox titration with gel shift on non-reducing SDS-PAGE
SelK U92C (Homo sapiens) [3] = biological target: SelK U92C (Homo sapiens) (UniProt Q9Y6D0); test: SDS-PAGE under non-reducing conditions

Substance | stoichiometry N (SelK U92S (Homo sapiens)) | stoichiometry N (SelK U92C (Homo sapiens) [1]) | stoichiometry N (SelK U92C (Homo sapiens) [2]) | stoichiometry N (SelK U92C (Homo sapiens) [3])
SelK U92S (from UniProt Q9Y6D0 2-94) (natural protein) | 2 | – | – | –
SelK U92C (from UniProt Q9Y6D0 2-94) (natural protein) | – | 2 | 2 | 2
